Reference: US20240376198A1 (INHIBRX, published 2024)
Read-outs that look alike come from different tables or passages of the source.

T1: mouse NKp46 (mouse, UniProt Q8C567 17-325)
T1 construct: whole, on cells
T1 sequence (looked up): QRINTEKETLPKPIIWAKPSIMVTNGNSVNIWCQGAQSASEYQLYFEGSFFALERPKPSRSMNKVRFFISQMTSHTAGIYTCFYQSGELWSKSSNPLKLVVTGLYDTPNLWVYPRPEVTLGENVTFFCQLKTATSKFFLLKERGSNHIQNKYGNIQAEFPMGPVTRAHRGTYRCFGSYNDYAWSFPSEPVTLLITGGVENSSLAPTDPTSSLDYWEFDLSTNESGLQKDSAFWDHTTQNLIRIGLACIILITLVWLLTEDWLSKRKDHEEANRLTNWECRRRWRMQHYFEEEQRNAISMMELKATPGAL


Tests used:
human NKp46 [1] = target: T2, human NKp46 (human, UniProt O76036 22-304); test: flow cytometry on HEK-293F cells transfected with full-length human NKp46, bivalent VHH with homodimeric Fc, anti-hFc-647 secondary
T2 construct: also called CD335; NCR1
T2 sequence (O76036 22-304 Q82K): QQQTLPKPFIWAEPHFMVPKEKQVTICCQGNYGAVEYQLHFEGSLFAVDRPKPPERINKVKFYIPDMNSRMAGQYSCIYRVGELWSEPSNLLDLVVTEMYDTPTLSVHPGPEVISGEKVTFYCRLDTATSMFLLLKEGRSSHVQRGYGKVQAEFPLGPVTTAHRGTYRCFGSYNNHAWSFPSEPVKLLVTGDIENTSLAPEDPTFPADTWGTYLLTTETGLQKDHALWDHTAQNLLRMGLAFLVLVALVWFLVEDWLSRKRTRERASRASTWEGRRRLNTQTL
Procedure: (§1) Binding of NKp46-binding polypeptides formatted as VHH-Fc fusion proteins was assessed by flow cytometry. An IgG1-Fc lacking a hinge, or a homodimeric Fc (FIG. 1I-1J) was used (the Fc lacking a hinge is annotated as Fc*). HEK293F cells were transiently transfected with a plasmid encoding full-length human NKp46, cynomolgus NKp46, or mouse NKp46, followed by an IRES and GFP. Transfected cells expressing NKp46 and GFP were used to measure binding of the polypeptides. The transfected cells were plated in a 96-well plate at 30,000 cells per well in FACS buffer (PBS, 1% BSA, 0.1% NaN₃, pH 7.4). Untransfected HEK293F cells were used as a NKp46-negative control and plated at 30,000 cells per well in a separate plate. Test polypeptides were then diluted to two times the final concentration of 1000 nM, and a 3-, 4-, or 5-fold, serial dilution was made. A final column was left with only FACS buffer as a secondary-only control. Test article dilutions were added to an equal volume of cells, and assay plates were incubated for 30 minutes at 4° C. […] After one additional wash with 150 μL of FACS buffer, bound antibody was detected by flow cytometry. […] NKp46 transfected cells were gated on as GFP positive, and polypeptide binding was measured as median fluorescence at 647 nm.

human NKp46 [2] = target: T2, human NKp46; test: flow cytometry, HEK293F cells transfected with human NKp46
Procedure: (§2) Binding of NKp46-binding polypeptides formatted as VHH-Fc fusion proteins was assessed by flow cytometry. An IgG1-Fc lacking a hinge, or a homodimeric Fc (FIG. 1I-1J) was used (the Fc lacking a hinge is annotated as Fc*). HEK293F cells were transiently transfected with a plasmid encoding full-length human NKp46, cynomolgus NKp46, or mouse NKp46, followed by an IRES and GFP. Transfected cells expressing NKp46 and GFP were used to measure binding of the polypeptides. The transfected cells were plated in a 96-well plate at 30,000 cells per well in FACS buffer (PBS, 1% BSA, 0.1% NaN₃, pH 7.4). Untransfected HEK293F cells were used as a NKp46-negative control and plated at 30,000 cells per well in a separate plate. Test polypeptides were then diluted to two times the final concentration of 1000 nM, and a 3-, 4-, or 5-fold, serial dilution was made. A final column was left with only FACS buffer as a secondary-only control. Test article dilutions were added to an equal volume of cells, and assay plates were incubated for 30 minutes at 4° C. After washing twice with 150 μL. of FACS buffer per well, the cells were resuspended in FACS buffer with α-hFc-647 secondary diluted 1:1000-2000. Assay plates were then left to incubate at 4° C. for 20-30 minutes. After one additional wash with 150 μL of FACS buffer, bound antibody was detected by flow cytometry. Flow cytometric detection was performed on an Intellicyt iQue Plus or Accuri iQue. NKp46 transfected cells were gated on as GFP positive, and polypeptide binding was measured as median fluorescence at 647 nm.

mouse NKp46 [3] = target: T1, mouse NKp46; test: flow cytometry, HEK293F cells transfected with mouse NKp46
Procedure: as §2

human NKp46 [4] = target: T2, human NKp46; test: flow cytometry, HEK293F cells transfected with human NKp46; remark: listed apart in the source
Procedure: as §2

cynomolgus NKp46 [5] = target: T3, cynomolgus NKp46 (cynomolgus monkey, UniProt Q95JB9 22-306); test: flow cytometry, HEK293F cells transfected with cyno NKp46
T3 construct: also called cyno NKp46; cynomolgus monkey NKp46
T3 sequence (Q95JB9 22-306 limits assumed): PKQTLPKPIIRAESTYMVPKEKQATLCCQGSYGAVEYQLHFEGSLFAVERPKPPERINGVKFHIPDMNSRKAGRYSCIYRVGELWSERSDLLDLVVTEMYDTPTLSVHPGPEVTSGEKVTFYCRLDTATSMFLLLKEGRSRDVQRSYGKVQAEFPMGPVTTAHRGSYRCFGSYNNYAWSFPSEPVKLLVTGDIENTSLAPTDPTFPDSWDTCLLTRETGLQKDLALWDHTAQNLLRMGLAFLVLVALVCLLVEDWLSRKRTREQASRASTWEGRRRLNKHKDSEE
Procedure: as §2

mouse NKp46 [6] = target: T1, mouse NKp46; test: flow cytometry, HEK293F cells transfected with mouse NKp46; remark: listed apart in the source
Procedure: as §2

cynomolgus NKp46 [7] = target: T3, cynomolgus NKp46; test: flow cytometry, HEK293F cells transfected with cyno NKp46; remark: listed apart in the source
Procedure: as §2

human NKp46 [8] = target: T2, human NKp46; test: flow cytometry, HEK293F cells transfected with human NKp46; Table 3 experiment; HEK-293 transfected with human NKp46
Procedure: as §1

mouse NKp46 [9] = target: T1, mouse NKp46; test: flow cytometry on HEK-293F cells transfected with full-length mouse NKp46, anti-hFc-647 secondary
Procedure: as §1

Row | Binder | EC50 (read off the curve) (human NKp46 [1]) [nM] | Kd (human NKp46 [2]) [nM] | Bmax (MFI) (mouse NKp46 [3]) | Kd (mouse NKp46 [3]) [nM] | Bmax (MFI) (human NKp46 [4]) | Kd (human NKp46 [4]) [nM] | Bmax (MFI) (cynomolgus NKp46 [5]) | Kd (cynomolgus NKp46 [5]) [nM] | Bmax (MFI) (mouse NKp46 [6]) | Kd (mouse NKp46 [6]) [nM] | Bmax (MFI) (cynomolgus NKp46 [7]) | Kd (cynomolgus NKp46 [7]) [nM] | Bmax (MFI) (human NKp46 [2]) | Kd (human NKp46 [8]) [nM] | EC50 (read off the curve) (mouse NKp46 [9]) [nM]
1 | NKp46-hz5D7v3-Fc* (Fc fusion, VHH-Fc fusion with an IgG1 Fc lacking a hinge (Fc*); also called NKp46-bz5D7v3-Fc*) EVQLVESGGGEVQPGGSLRLSCAASGRTFASAAMGWFRQAPGKEREFVAAISRSDDTYYAESVKGRFTISRDNAKNTVYLQMSSLRAEDTAVYYCAAVVPTYGNNIYVHSAAYNYWGQGTLVTVKPGGGGPSVFLFPPKPKDTLMISRTPEVTCVVVDVSHEDPEVKFNWYVDGVEVHNAKTKPREEQYNSTYRVVSVLTVLHQDWLNGKEYKCKVSNKALPAPIEKTISKAKGQPREPQVYTLPPSRDELTKNQVSLTCLVKGFYPSDIAVEWESNGQPENNYKTTPPVLDSDGSFFLYSKLTVDKSRWQQGNVFSCSVMHEALHNHYTQKSLSLSPG |  |  | 1.17e+06 | 0.685 | 149000 | 0.177 | 19800 | 0.773 | 56500 | 0.313 | 51800 | 0.726 | 1.27e+06 | 0.511 | 
2 | NKp46-hz5D7v11-Fc* (Fc fusion, VHH-Fc fusion with an IgG1 Fc lacking a hinge (Fc*)) EVQLVESGGGEVQPGGSLRLSCAASGRTFASAAMGWFRQAPGKEREFVAAISRSDDTYYADSVKGRFTISRDNAKNTVYLQMSSLRAEDTAVYYCAAVVPTYGSNIYVYSAAYNYWGQGTLVTVKPGGGGPSVFLFPPKPKDTLMISRTPEVTCVVVDVSHEDPEVKFNWYVDGVEVHNAKTKPREEQYNSTYRVVSVLTVLHQDWLNGKEYKCKVSNKALPAPIEKTISKAKGQPREPQVYTLPPSRDELTKNQVSLTCLVKGFYPSDIAVEWESNGQPENNYKTTPPVLDSDGSFFLYSKLTVDKSRWQQGNVFSCSVMHEALHNHYTQKSLSLSPG |  | 0.189 | 723000 | 1.7 |  |  |  |  |  |  | 52300 | 1.84 | 1.05e+06 |  | ~2

The remaining lines, values ahead:

Row | EC50 (read off the curve) (human NKp46 [1]) [nM] | Kd (human NKp46 [2]) [nM] | Bmax (MFI) (mouse NKp46 [3]) | Kd (mouse NKp46 [3]) [nM] | Bmax (MFI) (human NKp46 [4]) | Kd (human NKp46 [4]) [nM] | Bmax (MFI) (cynomolgus NKp46 [5]) | Kd (cynomolgus NKp46 [5]) [nM] | Bmax (MFI) (mouse NKp46 [6]) | Kd (mouse NKp46 [6]) [nM] | Bmax (MFI) (cynomolgus NKp46 [7]) | Kd (cynomolgus NKp46 [7]) [nM] | Bmax (MFI) (human NKp46 [2]) | Kd (human NKp46 [8]) [nM] | EC50 (read off the curve) (mouse NKp46 [9]) [nM] | Binder
3 | ~0.3 | 0.295 |  |  |  |  |  |  |  |  |  |  |  |  |  | NKp46-hz5D7v17-Fc (Fc fusion) EVQLVESGGGEVQPGGSLRLSCAASGRTFASAAMGWFRQAPGKEREFVAAISRSDDTYYAESVKGRFTISRDNAKNTVYLQMSSLRAEDTAVYYCAAVVPTYGSNIYVHSAAYNYWGQGTLVTVRPDKTHTCPPCPAPGGPSVFLFPPKPKDTLMISRTPEVTCVVVDVSHEDPEVKFNWYVDGVEVHNAKTKPREEQYNSTYRVVSVLTVLHQDWLNGKEYKCKVSNKALPAPIEKTISKAKGQPREPQVYTLPPSRDELTKNQVSLTCLVKGFYPSDIAVEWESNGQPENNYKTTPPVLDSDGSFFLYSKLTVDKSRWQQGNVFSCSVMHEALHNHYTQKSLSLSPG
4 |  |  |  |  | 138000 | 0.158 | 14300 | 0.252 | 11300 | 6.51 |  |  |  |  | ~8 | NKp46-hz5D7v14-Fc* (Fc fusion, VHH-Fc fusion with an IgG1 Fc lacking a hinge (Fc*)) EVQLVESGGGEVQPGGSLRLSCAASGRTFASAAMGWFRQAPGKEREFVAAISRSDDTYYAESVKGRFTISRDNAKNTVYLQMSSLRAEDTAVYYCAAVVPTYGSSIYVHSAAYNYWGQGTLVTVKPGGGGPSVFLFPPKPKDTLMISRTPEVTCVVVDVSHEDPEVKFNWYVDGVEVHNAKTKPREEQYNSTYRVVSVLTVLHQDWLNGKEYKCKVSNKALPAPIEKTISKAKGQPREPQVYTLPPSRDELTKNQVSLTCLVKGFYPSDIAVEWESNGQPENNYKTTPPVLDSDGSFFLYSKLTVDKSRWQQGNVFSCSVMHEALHNHYTQKSLSLSPG
